Experiment: yeast display, Sf9 membrane polyspecificity reagent, FACS + sequencing; frameworks hold sequencing errors
Method in brief: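 Using colony PCR, genes from sorted yeast display clones were amplified, then sequenced on MiSeq at 2 × 250 and filtered by CDR length. The clones had been stained with 10% biotinylated, detergent-solubilized Sf9 membrane reagent for 1 hour at 4 °C and sorted by FACS into low and high (top ~1%) gates on anti-HA and streptavidin fluorescence. Polyreactivity labels come from the gate of origin.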

Sequence	polyreactivity (PSR sort gate)
QLQLVESGGGLVQAGGSLRLICAASGRIFATYAMGWYRQAPGKEREFVAAITKGGVRTYYADSVKGRFTISRDNAKNTVYLQMNSLKPEDTAVYYCAADAWVRGRYPYGYDYWGQGTQVTVSS	low polyreactivity
QLQLVESGGGLVQAGGSLRLRCAASGRIFVRYAMGWYRQEPGKERELVAAISTRGGSTYYADSVKGRFTISRDKAKNTVYLQMNSLKAEDTAVYYCASGPRPRPSDYWGQGTQVTGSS	high polyreactivity
QLQLVESGGGLVQAGGSLRLRCAASGRTFIRYAMGWYRPAPGKERELVAAISSRGGRTHYADSVKGRFTISRDNAKNTFYFQMNSLKPEDTAVYDCAADLNYGTVPGASYDYWGQGTQVTGSS	low polyreactivity
QLQLVESGGGLVQAGGSLRLSCAASGFIFSWYAMGWYRQAPGKERELVAAISWSGGSTYYADSVKGRITISRDNANNSVYLQMNSLKPEDTAVYYCADDRGWAKEYYWVQGTQVTVSS	high polyreactivity
QLQLVESGGGLVQAGGSLRLSCAASGFTFQYYAMGWYRQAPCKERELVAVISRSGGRTYYADSVKGRFTISRDNAKYTVYLQMYSLKPEDTAVYYCAALSQPGQRDDNQYDYWGQGTQVTVSS	high polyreactivity
QLQLVESGGGLVQAGGSLRLSCAASGFTFRYYAMGWYRQAPGKERELVAAITRSGTTSYADSVKGRFTISRDNAKNTVYLQMNSLKPEDTAVYYCNTRVTGNRLGYYYWGQGTQVTVSS	high polyreactivity
QLQLVESGGGLVQAGGSLRLSCAASGFTFVSNAMGWYRQAPGKERELVAVISSGGSTTYADSVKGRFSISPDNAKNTVYLQMNSLKPEDTAGYYCATTNSQDSYEGGDYWGQGTQVTVSS	low polyreactivity
QLQLVESGGGLVQAGGSLRLSCAASGFTSDVYAKVSYRQAPGKERELVAEISARGGSTYYADSVKGRFTISRDNAKNTVYLQMNSLKPEDTAVYYCAAEVYVGTIGFYADFFYYPVYYWGQGTQVTVSS	low polyreactivity
QLQLVESGGGLVQAGGSLRLSCAASGIIFYWNAMGWYRQAPGKEREFVASISGSGGSTYADSVKGRFTISRDNAKNTVYLQMNSLKPEDTAVYYCAADFSNVGVQHDYYWGQGTQVTVSS	high polyreactivity
QLQLVESGGGLVQAGGSLRLSCAASGNIFNYNAMGWYRQAPGKERELVAAISFSGGSTYYADSVKGRFTISRDNAQNTVYLQMNSLKPEDTAVYYCAKAERNYFEDWGQGTQVTVSS	high polyreactivity
QLQLVESGGGLVQAGGSLRLSCAASGNTFFPYTMGWYRQAPGKERELVAAITWSGVSTYYADSVKGRFTISRDNAKYTVDLQMNSLKPEDTAVYYCAAPSTGTYGSDYWGQGTQVTVSS	high polyreactivity
QLQLVESGGGLVQAGGSLRLSCAASGRIFKFNAMGWYRQATGKERELVARITWRGGSPYYADSVKGRFTISRDNAKNTVYLQLNSLKPEDTAVYDCATYTPWTRFYSGTEVGYWGQGTQVTVSS	high polyreactivity
QLQLVESGGGLVQAGGSLRLSCAASGRIFRGYAMGWYRQAPGKERELVAAISGSGGSTYYADSVKGRFTISRDNAKNSVYLQMNSLKPEDTAVYYCAAEGRNYYGSYDYWGQGTQVTVSS	low polyreactivity
QLQLVESGGGLVQAGGSLRLSCAASGRTFSTYAMGWYRQAPGKEIELVAAISSGGGRTYYADSVKGRFTISRDNAKNTVYLQMNSLKQEDTAVYYCAADRYFRSRRSYEYWGQGTQVTVSS	low polyreactivity
QLQLVESGGGLVQAGGSLRLSCAASGRTFSYNTMGWYRHAPGKERELVAAISWSGGSTYYADSVKGRFTISRDNAKNTVYLQMNSLKPEDSAVYYCNARSSGKGRSNAYYKGHGYWGQGTQVTVSS	high polyreactivity
QLQLVESGGGLVQAGGSLRLSCAASGSIFASNAMGWYRQAPGKERELVAAISSGGSRTYYADSVKGRFTISRDNAKNSVYLQMNSLKPEDTAVYYCNTVWFYGAKYDYWGQGTQVTVSS	high polyreactivity
QLQLVESGGGLVQAGGSLRLSCAASGSIFDVYTMGWYRQAPGKERELVAAINTCGGSTYYADSVKGRFTISRDNAKNTVYLQMNSLKPEDTAVYYCAASVYHYGPLYYWGQGTQVTVSS	low polyreactivity
QLQLVESGGGLVQAGGSLRLSCAASGSIFTWYAMGWYRQAPGKERELVAAITRGGSTYADSVKGRFTISRDNAKNTVNLQMNSLKPEDTAVYYCNAVYGVYDFNYWGQGTQVTGSS	low polyreactivity
QLQLVESGGGLVQAGGSLRLSCAASGSNISYYAMGWSRQAPGKERELVAAISKRGASTYYADSVKGRFTISRDKAKNTVFLQMNSLKPEDTAVYYCAAYRQGSAYDYWGQGTQVTVSS	high polyreactivity
QLQLVESGGGLVQAGGSLRLSCAASGSTASINAMGWYRQAPGKERELVADISTNGDSTSYADSVKGRFTISRDNAKNTVYLQMNSLKPEDTAVYYCNAVPHIYAEGTAYKYWGQGTQETVSS	low polyreactivity
QLQLVESGGGLVQAGGSLRLSCAASGSTFDVNAMGWYRQAPGKERELVAAISYSGGSTYYADSVKGRFTISRDNAKNTVYLQMNSLTPEDTAVYYCNAVFSRYSRLELGYWGQGTQVTVSS	high polyreactivity
QLQLVESGGGLVQAGGSLRLSCAASGSTFGPYAMGWYRQAPGKDRELVASITRSGGDTYYADSVKGRFTISRDNAKNSVYLQMNSLKPEDTAVYYCNKASHANEFGYWGQGTQVTVSS	high polyreactivity

Sequence	polyreactivity (PSR sort gate)
QLQLVESGGGLVQAGGSLRLSCAASGSTFPWYTMGWYRQAPGKERELVAAITWNGVSTYYADSVKWRITISRDNAKNTVYFQMNSLKPEDTAVYYCATRIKRIGGFPYYYWGQGTQVTVSS	high polyreactivity
QLQLVESGGGLVQAGGSLRLSCAASGSTLSDNAMGWYRQAPAKERELVASISWSGGTYYADSVKGRFTISRDNANNTVYLQMNSLKPEDTAVYYCAAYIYYNYSRQYWYDYWGQGTQVTVSS	low polyreactivity
QLQLVESGGGLVQAGGSLRLSCAASGSTLYWNAMGWYRQAPGKERELVAGISIGGRTNYADSVKGRFTISRDNAKNTVYLQMNSLKPEDTAVYYCNAENTYLGSRYRPYNYWGQGTQVTVSS	low polyreactivity
QLQLVESGGGLVQAGGSLRLSCAASGSTVAYNDMGWYRQAPGKERELVADIRSGGNTNYADSVKGRFTISRDNAKNTVYLQMNSLKTEDTAVYYCATDGYRIDVYHPDYRYDYWGQGTQVTVSS	low polyreactivity
QLQLVESGGGLVQAGGSLRLSCAASGYIFFKYAMGWYRQAPWKERELVASITSRGGTTYYADSVKGRFTISRDNAKNTVYLQMNSLKPEDTAVYYCAALRRSSFGYWGQGTQVTVSS	high polyreactivity
QLQLVESGGGLVQAGGSLRLSCAASGYIFGWYAMGWYRQAPGKERELVATIDWSGDSTYYADSVKGRFTISRDNAKNTVYLQLNSLKPEATAVYYCAVGYSYYPSDEFDYWGQGTQVTVSS	low polyreactivity
QLQLVESGGGLVQAGGSLRLSCAASGYTFRFNAMGWYRQAPGKEREFVAAIDFGGAGTYYADSVKGRFTISRDNAKNTVYLQMNSLKPEDTAVYYCAADGQWYYAPFRGGDYENDYWGQGTQVTVSS	low polyreactivity
QLQLVESGGGLVQAGGSLRLSCAASGYTIIQYAMGWYRQAPGKERELVAGITWSGGSTYADSVKGRFSISRDNAKNTVYLQMNSLKPEDTAVYYCAADDRDIYQYGTPYGSGIRYDYWGQGTQVTVSS	low polyreactivity
QLQLVESGGGLVQAGGSLRLSCAASRRIFDRNAMGWYRQAPGKERELVARIDPGDDTNYADSVKGRFTISRDNAKNTVSLQMNSLKPEDSAVYYCATDPDYVLYRTAYYEYDYWGLGTQVTVSS	low polyreactivity
QLQLVESGGGLVQAGGSLRLSSAASGFTFSIYAMGCYRQAPGKERELVAAINFGGGGTYYADSVKGRFTSSRDIAKNTVYLQMNSLKAEVTAVYDCAADYCYDYYSTEYDYWGQGTQVTVSS	low polyreactivity
QLQLVESGGGLVQAGGSLRLSSAASGSIFYEYTMGWYRQAPGKEREVVAVITSGGTTNYADSVKGRFTISRDNANNTDYLQMNSLKPEDTAFYYCNAVYRTSFQRGGGYWGQGTQVTVSS	high polyreactivity
QLQLVESGGVLVQAGGSLRLSCAASGRTFSEYLQGCYRPPPGKERELVAASTRGGGGTYYADSVKGRFTISRDNAKNTVYFQMNSLKPEDTAVYYCAAGRRGSAGYYRQFGYGYWGQGTQVTVSS	high polyreactivity
QLQLVESGRGLVQAGGSLRLSCAASGRTFYGYDMGWYRPAPGKERELVATISSGGSTNYADSVKGRFTISRDNAKNTVYLQMNSLKPEDTAVYYCNADSYEYPSPYRYYYLGYDYWGQGTQVTVSS	low polyreactivity
QLQLVESRPGLVPAGGSLRLSCAPSGSTFSYYAMGRYRQAPGKERELDAAISKSGGSTYYADSVKGRFTISRDNAINTVFLQMNSLKPYDTAFYYCSTRSRDPYSVSYRLDYWGQGTQVTVSS	low polyreactivity
QLQLVESVGGLVQAGGSLRLSCASSGLIFYVSAMGSYRQAPGKERELVAAITSSGASTYYADSVKGRFTISRDNAKNTVYLQMNSLKPEDTAVYYCAGRYAGGRRAYGYWGQGTQVSVSS	high polyreactivity
QLQLVESVGGVVQPGGSLRLSSAASGSNFRYYAIGWYRQAPGKERELVAAINWSGGSTYYADSVKGRVTISRDNAKNTVYLQMNSLKPEDTAVYYWAASWYYCRRYDYWGQGTQVTVSS	high polyreactivity
QQLQESGGGLVQAGGSLRLSCAASGSISGSVLMGWYRQAPGKEREFVASISLGGNTNYADSVKGRFTISRENAKNTVYLQMNCLKPEVAAVYYCAAYISLFETHPYWGQGTQVTVSS	high polyreactivity
QVELVESCGGLVQAGGSLRLSCAASGSTFTRNGMGWYSLAPGKEREMVAAISSGGSTNYADSVKGRFTISRDNAKNTVDFQKNSLQPEDTAVYYCAVDYRHSSSWNAGPWQMYYWGQGTQVTVSS	low polyreactivity
QVELVESGGGLVLAGGSLRLSCADSGRTFSYYAMGWYRQAPGKERELVAVITSSGGSTSYADSVKGRFTISRDNAKNTVYLQMNSLKPEDTAVYDCAADPLAVYWAYYLIGVYYWGQGTQVTVSS	high polyreactivity
QVELVESGGGLVQAGGSLRLSCAASGFTFRYYAMGWYRQAPGKERELVAAINASGGRTYYADSVKGRFTISRDNAKNTVYLQMNSLKPEDTAVYYCAARSIRQHYGMDYWGQGTQVTVSS	high polyreactivity
QVELVESGGGLVQAGGSRRLSCAASGSTFYAYAMGWYRQAPGKERELVAAISASGDSTYYADFVKGRFTISRDNAKNTVYLQMNSLTPEDTAVYYCAAEVYYRPQDYYTYPDYYWGQGTQVTVSS	high polyreactivity
